{
  "source": "paper PMC11667166",
  "about": "“O-glycosylation is essential for cell surface expression of the transcobalamin receptor CD320” (The Journal of Biological Chemistry, 2024)",
  "proteins": {"B1": {"name": "human CD320 (transcobalamin receptor), wild type, with an N-terminal FLAG or V5 tag (receptor, UniProt Q9NPF0-1 36-282, looked up)", "chain": "SPLSTPTSAQAAGPSSGSCPPTKFQCRTSGLCVPLTWRCDRDLDCSDGSDEEECRIEPCTQKGQCPPPPGLPCPCTGVSDCSGGTDKKLRNCSRLACLAGELRCTLSDDCIPLTWRCDGHPDCPDSSDELGCGTNEILPEGDATTMGPPVTLESVTSLRNATTMGPPVTLESVPSVGNATSSSAGDQSGSPTAYGVIAAAAVLSASLVTATLLLLSWLRAQERLRPLGLLVAMKESLLLSEQKTSLP", "modifications": "N-glycans at N126, N195 and N213; terminally sialylated O-glycans (the ~70-kDa proteoform)", "notes": "CD320 (transcobalamin receptor), human, NCBI NP_057663.1; wild type; type I transmembrane protein with signal peptide, two LDLR repeats, EGF-like module, transmembrane domain and cytoplasmic segment; Two differently tagged copies of the same protein (one with N-terminal FLAG, one with N-terminal V5) were co-expressed; each chain carries only one of the two tags; The ~350-kDa complex is seen only …"}},
  "biological_target": "the molecule itself",
  "experiment": "co-IP; CD320-FLAG and CD320-V5 co-expressed in HEK293 cells; immunoprecipitation with anti-FLAG or anti-V5 antibody, western blotting with anti-FLAG or anti-V5 under non-reducing conditions (~350-kDa band)",
  "data": [
    {"protein": "B1", "values": [
      {"measurement": "stoichiometry N", "result": "~5"}
    ]}
  ]
}
